Measurements: patent US20250034261A1 (TAIZHOU ENZE MEDICAL CENTER GROUP, published 2025)

Assays:
[1] = biological target: T1, antigenic peptide located at positions 209-226 in the heavy chain α3 domain of the HLA-G molecules … (human); experiment: indirect ELISA, peptide coated at 2 ug/ml; antibody stock 2.8 mg/mL
T1 construct: Synthetic peptide, coated on the ELISA plate at 2 ug/ml; also called immunogen
T1 peptide: KTHVTHHPVFDYEATLRC
Protocol: (§1) The antigen (SEQ No. 19 [sequence]) was diluted with the coating buffer, with the final concentration of 2 ug/ml, 100 ul/well, and placed at 4° C. overnight; washed with the wash buffer twice, blocked with the blocking buffer at 200 ul/well, incubated at 37° C. for 2 hours; then washed once with the wash buffer. The purified antibody was diluted by 2-fold starting from 200-fold (PBS), and the blank control (blank) was PBS, 100 ul/well, and incubated at 37° C. for 1 hour; and then washed 3 times with the wash buffer. The secondary antibody diluted with PBS by 20,000-fold was added, 100 ul/well, and incubated in a 37° C. incubator for 1 hour; taken out and washed 3 times with a wash buffer. Then the color development was performed with a developing solution of 100 ul/well for 5-15 minutes. Then 50 ul of stop solution was added to each well to stop. The absorbance value was measured at dual wavelengths (450, 630), and a chart was drawn for analysis.

HLA-G7 standard protein = biological target: T2, HLA-G7 standard protein (human, UniProt P17693-7 25-116); experiment: immunoblot of HLA-G isoform standard proteins
T2 construct: Standard protein used in immunoblotting
Protocol: (§2) After electroporating the standard proteins of HLA-G isoforms (HLA-G1, HLA-G2, HLA-G3, HLA-G4, HLA-G5, HLA-G6 and HLA-G7), 5% skimmed milk powder was used to block at room temperature for 4 hours, and washed with 0.2% TBS (Tewen-20 PBS).

HLA-G4 standard protein = biological target: T3, HLA-G4 standard protein (human, UniProt P17693-4 25-246); experiment: immunoblot of HLA-G isoform standard proteins
T3 construct: Standard protein used in immunoblotting
Protocol: as §2

HLA-G3 standard protein = biological target: T4, HLA-G3 standard protein (human, UniProt P17693-3 25-154); experiment: immunoblot of HLA-G isoform standard proteins
T4 construct: Standard protein used in immunoblotting
Protocol: as §2

[2] = biological target: T1, antigenic peptide located at positions …; experiment: indirect ELISA, peptide coated at 2 ug/ml, antibody in 2-fold dilutions from 200-fold; logistic fit, 150000×A/antibody concentration
Protocol: as §1

antibody dilution factor corresponding to 1/2 OD value [1]: 205000 fold dilution
binding result (HLA-G7 standard protein): no binding (tested: 1.0 ug/ml)
binding result (HLA-G4 standard protein): no binding (tested: 1.0 ug/ml)
binding result (HLA-G3 standard protein): no binding (tested: 1.0 ug/ml)
Ka [2]: 1.1e+10 M⁻¹
B1: monoclonal antibody (YWHG-3) against HLA-G1, -G2, -G5 and HLA-G6 isoforms (antibody, IgG1, V domains shown)
VH: LVQLQQSGGGLVKPGGSLKLSCAASGFTFSDYNMYWVRQTPEKRLEWVATISDGGRSTFYLDSVKGRFTISRDNAKNNLYLQINNLKSEDTAIYYCVRDDYWGQGTTLTVSS
VL: DIMMTQTPLSLPVSLGDQASISCRSSQSLVHSTGNTFLNWYLQKPGQSPKLLIYKVSNRFSGVSDRFSGSGSGTDFTLKIRRVEAEDLGVYFCSQSTHVPWTFGGGTKLEIK
notes: Used biotin-labelled in the HLA-G5 ELISA and FITC-labelled in flow cytometry; also called hybridoma CCTCC NO: 202121
